Positions count from the first letter of the chain named. Names may count otherwise. One block for each binder: values may come before it.
Key:
[1] = biological target: T1, mouse MIF treated with 0.2% Proclin300 (oxMIF surrogate) (Mus musculus, UniProt P34884, treated with 0.2% Proclin300 to transform MIF into an oxMIF surrogate); test: ELISA; quantitative oxMIF ELISA: 15 nmol/L C0008, ON103 or ON203 as capture antibodies; human or mouse MIF in buffers with 0.2% Proclin300 as standard curves; EC50; settings: both partners purified
T1 construct: mouse MIF; also called mouse oxMIF in solution; soluble mouse oxMIF; source: E. coli SHuffle T7 Express lysY, purified (DEAE flow-through, SP cation exchange, SEC or desalting)

[2] = biological target: T2, human MIF treated with 0.2% Proclin300 (oxMIF surrogate) (Homo sapiens, UniProt P14174, treated with 0.2% Proclin300 to transform MIF into an oxMIF surrogate); test: SPR; Biacore 3000; antibodies amine-coupled to CM5 chips (about 2,500; 1,500; 1,000 RU); MIF at 42-666 nmol/L in HBS-EP with 0.2% Proclin300 (3 hours, room temperature), 30 uL/minute; Langmuir 1:1 model with mass transfer; mean of flow cells 2-4; settings: both partners purified
T2 construct: human MIF; Same protein as m4, after treatment with Proclin300 (3 hours at room temperature for SPR); also called human oxMIF in solution; soluble human oxMIF; source: E. coli SHuffle T7 Express lysY, purified (DEAE flow-through, SP cation exchange, SEC or desalting)
T2 sequence (P14174 whole entry): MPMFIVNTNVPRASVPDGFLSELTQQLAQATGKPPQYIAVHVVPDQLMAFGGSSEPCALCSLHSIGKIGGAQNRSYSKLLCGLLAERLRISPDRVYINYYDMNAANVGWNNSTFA

binding result [1]: binds | binding result [2]: binds
B1: C0008 (antibody, V domains shown)
VH: EVQLLESGGGLVQPGGSLRLSCAASGFTFSIYSMNWVRQAPGKGLEWVSSIGSSGGTTYYADSVKGRFTISRDNSKNTLYLQMNSLRAEDTAVYYCAGSQWLYGMDVWGQGTTVTVSS
VL: DIQMTQSPSSLSASVGDRVTITCRSSQRIMTYLNWYQQKPGKAPKLLIFVASHSQSGVPSRFRGSGSETDFTLTISGLQPEDSATYYCQQSFWTPLTFGGGTKVEIK
notes: human IgG1 wt constant region; variable region shared with BaxB01 (PDB 6FOE); full-length light chain identical to that of imalumab; Human IgG1; also called imalumab; Bax69; source: ExpiCHO, transient expression, purified (Protein A MabSelect PrismA, HiTrap SP HP)

binding result [1]: binds
B2: ON203 (antibody, V domains shown)
VH: B1 VH with L5Q, W101Y
VL: B1 VL with F49Y, A51G, W93F
notes: heavy-chain variable domain of C0090: the VH of m1 with point mutations; heavy-chain constant region of an IgG1/IgG2 hybrid isotype with two point mutations (S239D/I332E) in the CH2 domain; light chain of C0090: as the light chain of m1 with point mutations in VL; Variable domains of C0090 on an IgG1/IgG2 hybrid constant region; also called second-generation anti-oxMIF mAb; lead candidate; …

binding result [1]: binds
B3: ON103 (antibody, V domains shown)
VH: B1 VH with L5Q, W101Y
VL: B1 VL with M30L, F49Y, A51G, P80S, W93F
notes: heavy-chain variable domain of C0083: the VH of m1 with point mutations; heavy-chain constant region of an IgG1/IgG2 hybrid isotype with two point mutations (S239D/I332E) in the CH2 domain; light chain of C0083: as the light chain of m1 with point mutations in VL; Variable domains of C0083 on an IgG1/IgG2 hybrid constant region; also called second-generation anti-oxMIF mAb; lead candidate; …

Reference: PMC10157364 (Molecular Cancer Therapeutics, 2023)
